Source: the supplement of paper PMC5998384

Columns and labels:
HeLa Kyoto [1] = experiment: solubility in G1/S (NP-40 vs SDS abundance) (log2 ratio); higher = more soluble; settings: cell cycle stage: G1/S
HeLa Kyoto [2] = experiment: melting temperature (median over replicates), in situ; higher = more thermally stable
HeLa Kyoto [3] = experiment: solubility change mitosis vs G1/S (difference of NP-40 vs SDS log2 ratios) (log2 ratio difference); higher = more soluble in mitosis
HeLa Kyoto [4] = experiment: thermal stability score vs G1/S (z-score of summed log2 fold changes over temperatures); higher = more thermally stable than in G1/S
[5] = cell cycle stage: early G1 (4.5 h after nocodazole release)
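For melting temperature (median over replicates), in situ in this document: HeLa Kyoto cells synchronized by double thymidine or nocodazole block, proteins quantified by TMT10plex mass spectrometry, three independent biological replicates.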
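For solubility change mitosis vs G1/S (difference of NP-40 vs SDS log2 ratios) in this document: synchronized HeLa Kyoto cells (double thymidine block for G1/S, nocodazole release for mitosis), protein amounts in NP-40 versus SDS lysates quantified by mass spectrometry, three biological replicates.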
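For solubility in G1/S (NP-40 vs SDS abundance) in this document: HeLa Kyoto cells arrested at G1/S by double thymidine block, proteins quantified by TMT10plex mass spectrometry in mild NP-40 versus SDS extracts, three biological replicates.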
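For thermal stability score vs G1/S (z-score of summed log2 fold changes over temperatures) in this document: synchronized HeLa Kyoto cells, proteins quantified by TMT10plex mass spectrometry, three biological replicates, mitosis taken 0.5 h after nocodazole release, G1/S directly after double thymidine block.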

Sequence | solubility in G1/S (log2) (HeLa Kyoto [1]) | melting temperature (HeLa Kyoto [2]; cell cycle stage: G1/S) [°C] | melting temperature (HeLa Kyoto [2]; cell cycle stage: mitosis) [°C] | solubility change mitosis (log2) (HeLa Kyoto [3]) | thermal stability score (HeLa Kyoto [4]; [5]) | thermal stability score (HeLa Kyoto [4]; cell cycle stage: mitosis)
MPMWAGGVGSPRRGMAPASTDDLFARKLRQPARPPLTPHTFEPRPVRGPLLRSGSDAGEARPPTPASPRARAHSHEEASRPAATSTRLFTDPLALLGLPAEEPEPAFPPVLEPRWFAHYDVQSLLFDWAPRSQGMGSHSEASSGTLASAEDQAASSDLLHGAPGFVCELGGEGELGLGGPASPPVPPALPNAAVSILEEPQNRTSAYSLEHADLGAGYYRKYFYGKEHQNFFGMDESLGPVAVSLRREEKEGSGGGTLHSYRVIVRTTQLRTLRGTISEDALPPGPPRGLSPRKLLEHVAPQLSPSCLRLGSASPKVPRTLLTLDEQVLSFQRKVGILYCRAGQGSEEEMYNNQEAGPAFMQFLTLLGDVVRLKGFESYRAQLDTKTDSTGTHSLYTTYQDHEIMFHVSTMLPYTPNNQQQLLRKRHIGNDIVTIVFQEPGSKPFCPTTIRSHFQHVFLVVRAHTPCTPHTTYRVAVSRTQDTPAFGPALPAGGGPFAANADFRAFLLAKALNGEQAAGHARQFHAMATRTRQQYLQDLATNEVTTTSLDSASRFGLPSLGGRRRAAPRGPGAELQAAGSLVWGVRAAPGARVAAGAQASGPEGIEVPCLLGISAEALVLVAPRDGRVVFNCACRDVLAWTFSEQQLDLYHGRGEAITLRFDGSPGQAVGEVVARLQLVSRGCETRELALPRDGQGRLGFEVDAEGFVTHVERFTFAETAGLRPGARLLRVCGQTLPSLRPEAAAQLLRSAPKVCVTVLPPDESGRPRRSFSELYTLSLQEPSRRGAPDPVQDEVQGVTLLPTTKQLLHLCLQDGGSPPGPGDLAEERTEFLHSQNSLSPRSSLSDEAPVLPNTTPDLLLATTAKPSVPSADSETPLTQDRPGSPSGSEDKGNPAPELRASFLPRTLSLRNSISRIMSEAGSGTLEDEWQAISEIASTCNTILESLSREGQPIPESGDPKGTPKSDAEPEPGNLSEKVSHLESMLRKLQEDLQKEKADRAALEEEVRSLRHNNRRLQAESESAATRLLLASKQLGSPTADLA [SIPA1] | -0.217 | 50.8 | 51.4 | 0.0512 | 1.19 | 0.467
MIAHKQKKTKKKRAWASGQLSTDITTSEMGLKSLSSNSIFDPDYIKELVNDIRKFSHMLLYLKEAIFSDCFKEVIHIRLEELLRVLKSIMNKHQNLNSVDLQNAAEMLTAKVKAVNFTEVNEENKNDLFQEVFSSIETLAFTFGNILTNFLMGDVGNDSLLRLPVSRETKSFENVSVESVDSSSEKGNFSPLELDNVLLKNTDSIELALSYAKTWSKYTKNIVSWVEKKLNLELESTRNMVKLAEATRTNIGIQEFMPLQSLFTNALLNDIESSHLLQQTIAALQANKFVQPLLGRKNEMEKQRKEIKELWKQEQNKMLEAENALKKAKLLCMQRQDEYEKAKSSMFRAEEEHLSSSGGLAKNLNKQLEKKRRLEEEALQKVEEANELYKVCVTNVEERRNDLENTKREILAQLRTLVFQCDLTLKAVTVNLFHMQHLQAASLADSLQSLCDSAKLYDPGQEYSEFVKATNSTEEEKVDGNVNKHLNSSQPSGFGPANSLEDVVRLPDSSNKIEEDRCSNSADITGPSFIRSWTFGMFSDSESTGGSSESRSLDSESISPGDFHRKLPRTPSSGTMSSADDLDEREPPSPSETGPNSLGTFKKTLMSKAALTHKFRKLRSPTKCRDCEGIVVFQGVECEECLLVCHRKCLENLVIICGHQKLPGKIHLFGAEFTQVAKKEPDGIPFILKICASEIENRALCLQGIYRVCGNKIKTEKLCQALENGMHLVDISEFSSHDICDVLKLYLRQLPEPFILFRLYKEFIDLAKEIQHVNEEQETKKNSLEDKKWPNMCIEINRILLKSKDLLRQLPASNFNSLHFLIVHLKRVVDHAEENKMNSKNLGVIFGPSLIRPRPTTAPITISSLAEYSNQARLVEFLITYSQKIFDGSLQPQDVMCSIGVVDQGCFPKPLLSPEERDIERSMKSLFFSSKEDIHTSESESKIFERATSFEESERKQNALGKCDACLSDKAQLLLDQEAESASQKIEDGKTPKPLSLKSDRSTNNVERHTPRTKIRPVSLPVDRLLLASPPNERNGRNMGNVNLDKFCKNPAFEGVNRKDAATTVCSKFNGFDQQTLQKIQDKQYEQNSLTAKTTMIMPSALQEKGVTTSLQISGDHSINATQPSKPYAEPVRSVREASERRSSDSYPLAPVRAPRTLQPQHWTTFYKPHAPIISIRGNEEKPASPSAAVPPGTDHDPHGLVVKSMPDPDKASACPGQATGQPKEDSEELGLPDVNPMCQRPRLKRMQQFEDLEGEIPQFV [ARHGAP29] | -0.185 | 50.5 | 51.1 | -0.0634 | 1 | 1.36
MEAPLQTGMMGTSSHGLATNSSGAKVAERDGFQDVLAPGEGSAGRICGAQPVPFVPQVLGVMIGAGVAVVVTAVLILLVVRRLRVPKTPAPDGPRYRFRKRDKVLFYGRKIMRKVSQSTSSLVDTSVSATSRPRMRKKLKMLNIAKKILRIQKETPTLQRKEPPPAVLEADLTEGDLANSHLPSEVLYMLKNVRVLGHFEKPLFLELCRHMVFQRLGQGDYVFRPGQPDASIYVVQDGLLELCLPGPDGKECVVKEVVPGDSVNSLLSILDVITGHQHPQRTVSARAARDSTVLRLPVEAFSAVFTKYPESLVRVVQIIMVRLQRVTFLALHNYLGLTNELFSHEIQPLRLFPSPGLPTRTSPVRGSKRMVSTSATDEPRETPGRPPDPTGAPLPGPTGDPVKPTSLETPSAPLLSRCVSMPGDISGLQGGPRSDFDMAYERGRISVSLQEEASGGSLAAPARTPTQEPREQPAGACEYSYCEDESATGGCPFGPYQGRQTSSIFEAAKQELAKLMRIEDPSLLNSRVLLHHAKAGTIIARQGDQDVSLHFVLWGCLHVYQRMIDKAEDVCLFVAQPGELVGQLAVLTGEPLIFTLRAQRDCTFLRISKSDFYEIMRAQPSVVLSAAHTVAARMSPFVRQMDFAIDWTAVEAGRALYRQGDRSDCTYIVLNGRLRSVIQRGSGKKELVGEYGRGDLIGVVEALTRQPRATTVHAVRDTELAKLPEGTLGHIKRRYPQVVTRLIHLLSQKILGNLQQLQGPFPAGSGLGVPPHSELTNPASNLATVAILPVCAEVPMVAFTLELQHALQAIGPTLLLNSDIIRARLGASALDSIQEFRLSGWLAQQEDAHRIVLYQTDASLTPWTVRCLRQADCILIVGLGDQEPTLGQLEQMLENTAVRALKQLVLLHREEGAGPTRTVEWLNMRSWCSGHLHLRCPRRLFSRRSPAKLHELYEKVFSRRADRHSDFSRLARVLTGNTIALVLGGGGARGCSHIGVLKALEEAGVPVDLVGGTSIGSFIGALYAEERSASRTKQRAREWAKSMTSVLEPVLDLTYPVTSMFTGSAFNRSIHRVFQDKQIEDLWLPYFNVTTDITASAMRVHKDGSLWRYVRASMTLSGYLPPLCDPKDGHLLMDGGYINNLPADIARSMGAKTVIAIDVGSQDETDLSTYGDSLSGWWLLWKRLNPWADKVKVPDMAEIQSRLAYVSCVRQLEVVKSSSYCEYLRPPIDCFKTMDFGKFDQIYDVGYQYGKAVFGGWSRGNVIEKMLTDRRSTDLNESRRADVLAFPSSGFTDLAEIVSRIEPPTSYVSDGCADGEESDCLTEYEEDAGPDCSRDEGGSPEGASPSTASEMEEEKSILRQRRCLPQEPPGSATDA [PNPLA6] | -0.179 | 51.4 | 50.8 | -0.0785 | -0.313 | -1.07
MESNKDEAERCISIALKAIQSNQPDRALRFLEKAQRLYPTPRVRALIESLNQKPQTAGDQPPPTDTTHATHRKAGGTDAPSANGEAGGESTKGYTAEQVAAVKRVKQCKDYYEILGVSRGASDEDLKKAYRRLALKFHPDKNHAPGATEAFKAIGTAYAVLSNPEKRKQYDQFGDDKSQAARHGHGHGDFHRGFEADISPEDLFNMFFGGGFPSSNVHVYSNGRMRYTYQQRQDRRDNQGDGGLGVFVQLMPILILILVSALSQLMVSSPPYSLSPRPSVGHIHRRVTDHLGVVYYVGDTFSEEYTGSSLKTVERNVEDDYIANLRNNCWKEKQQKEGLLYRARYFGDTDMYHRAQKMGTPSCSRLSEVQASLHG [DNAJB12] | 0.104 | 49.4 | 50.4 | -0.00489 | 2.37 | 0.328
MEKTQETVQRILLEPYKYLLQLPGKQVRTKLSQAFNHWLKVPEDKLQIIIEVTEMLHNASLLIDDIEDNSKLRRGFPVAHSIYGIPSVINSANYVYFLGLEKVLTLDHPDAVKLFTRQLLELHQGQGLDIYWRDNYTCPTEEEYKAMVLQKTGGLFGLAVGLMQLFSDYKEDLKPLLNTLGLFFQIRDDYANLHSKEYSENKSFCEDLTEGKFSFPTIHAIWSRPESTQVQNILRQRTENIDIKKYCVHYLEDVGSFEYTRNTLKELEAKAYKQIDARGGNPELVALVKHLSKMFKEENE [GGPS1] | 0.163 | 55.2 | 56 | -0.0913 | -1.73 | -1.98
MALKQISSNKCFGGLQKVFEHDSVELNCKMKFAVYLPPKAETGKCPALYWLSGLTCTEQNFISKSGYHQSASEHGLVVIAPDTSPRGCNIKGEDESWDFGTGAGFYVDATEDPWKTNYRMYSYVTEELPQLINANFPVDPQRMSIFGHSMGGHGALICALKNPGKYKSVSAFAPICNPVLCPWGKKAFSGYLGTDQSKWKAYDATHLVKSYPGSQLDILIDQGKDDQFLLDGQLLPDNFIAACTEKKIPVVFRLQEGYDHSYYFIATFITDHIRHHAKYLNA [ESD] | -0.0889 | 55.8 | 56.4 | -0.0867 | -1.51 | -2.28
MRLLPLAPGRLRRGSPRHLPSCSPALLLLVLGGCLGVFGVAAGTRRPNVVLLLTDDQDEVLGGMTPLKKTKALIGEMGMTFSSAYVPSALCCPSRASILTGKYPHNHHVVNNTLEGNCSSKSWQKIQEPNTFPAILRSMCGYQTFFAGKYLNEYGAPDAGGLEHVPLGWSYWYALEKNSKYYNYTLSINGKARKHGENYSVDYLTDVLANVSLDFLDYKSNFEPFFMMIATPAPHSPWTAAPQYQKAFQNVFAPRNKNFNIHGTNKHWLIRQAKTPMTNSSIQFLDNAFRKRWQTLLSVDDLVEKLVKRLEFTGELNNTYIFYTSDNGYHTGQFSLPIDKRQLYEFDIKVPLLVRGPGIKPNQTSKMLVANIDLGPTILDIAGYDLNKTQMDGMSLLPILRGASNLTWRSDVLVEYQGEGRNVTDPTCPSLSPGVSQCFPDCVCEDAYNNTYACVRTMSALWNLQYCEFDDQEVFVEVYNLTADPDQITNIAKTIDPELLGKMNYRLMMLQSCSGPTCRTPGVFDPGYRFDPRLMFSNRGSVRTRRFSKHLL [GNS] | 0.471 | 57.1 | 57.6 | 0.0867 | -1.62 | -1.58
